In patent US20210380669A1 (SCHOLAR ROCK, published 2021):
Positions count from the first letter of the chain named. Each block holds one binder with its values, some of them ahead of it.

Tests used:
histidine tagged hRGMc = biological target: T1, histidine tagged hRGMc (human, UniProt Q6ZVN8 36-400); assay: MSD-SET, full-length antibody against human RGMc-his
T1 construct: also called human RGMc-his; not shown: histidine tag
T1 sequence: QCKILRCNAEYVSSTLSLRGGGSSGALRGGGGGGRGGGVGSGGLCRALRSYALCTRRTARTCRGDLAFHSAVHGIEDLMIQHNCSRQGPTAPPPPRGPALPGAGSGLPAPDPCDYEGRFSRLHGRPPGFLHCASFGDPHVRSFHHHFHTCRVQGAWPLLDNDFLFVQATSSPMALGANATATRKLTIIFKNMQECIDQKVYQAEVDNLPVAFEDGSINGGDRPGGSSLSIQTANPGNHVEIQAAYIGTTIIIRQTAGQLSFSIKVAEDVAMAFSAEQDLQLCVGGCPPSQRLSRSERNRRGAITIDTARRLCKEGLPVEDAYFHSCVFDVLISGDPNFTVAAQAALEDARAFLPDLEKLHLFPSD
Protocol: The titration was then added to a pre-coated plate with a capture antibody (pre-labeled with an NHS-sulfotag) that depletes any free antigen from solution. After a 150 second incubation, the plate was washed 3 times and an SA-sulfotag reagent was added and incubated for 3 min. After additional washes the plate was read on a MesoQuickPlex SQ120.
A similar MSD-SET assay was performed with the full-length antibodies against the human RGMc-his antigen to determine binding affinity (KD)).

[1] = biological target: T2, recombinant, soluble human RGMc fused to an Fc (human, UniProt Q6ZVN8 36-400, limits assumed); assay: cell-based or functional assay
T2 sequence: T1 sequence

[2] = biological target: T2, recombinant, soluble human RGMc fused …; assay: cell-based or functional assay; remark: listed apart in the source
histidine tagged hRGMb = biological target: T3, histidine tagged hRGMb (human, UniProt Q6NW40 46-413); assay: Octet (BLI), antibody on AHC biosensor, his-tagged hRGMb in solution (concentrations from paragraph 460)
T3 construct: not shown: histidine tag
T3 sequence: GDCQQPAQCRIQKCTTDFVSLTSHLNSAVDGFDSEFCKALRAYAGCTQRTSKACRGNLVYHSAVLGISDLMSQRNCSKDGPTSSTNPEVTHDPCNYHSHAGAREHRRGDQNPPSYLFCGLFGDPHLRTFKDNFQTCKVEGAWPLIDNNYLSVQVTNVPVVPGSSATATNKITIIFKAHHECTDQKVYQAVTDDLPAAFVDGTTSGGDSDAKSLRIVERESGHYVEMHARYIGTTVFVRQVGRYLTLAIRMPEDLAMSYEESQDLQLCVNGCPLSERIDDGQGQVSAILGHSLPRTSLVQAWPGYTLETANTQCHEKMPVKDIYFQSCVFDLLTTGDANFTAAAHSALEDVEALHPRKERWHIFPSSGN
Protocol: (§1) Antibodies that are selective for RGMc were generated using known techniques as describe herein. RGMc specificity over RGMa and RGMb was verified using an in vitro binding assay (i.e., Octet®). […] After loading, a baseline reading was obtained by placing the tips into 1× Kinetics Buffer before calculating the on rate, or association, of the antibodies by presenting them to histidine tagged hRGMc, hRGMa, or hRGMb, at varying concentrations (900 nM, 300 nM, 100 nM, and 33 nM). After reaching binding saturation, a dissociation step was performed to calculate the off rate by moving the tips back into 1× Kinetics Buffer. The rate of binding and dissociation can then be used to calculate the KD, or binding affinity of each antibody to the main target (RGMc) while ensuring no cross binding to RGM family members (RGMa and RGMb).

histidine tagged hRGMa = biological target: T4, histidine tagged hRGMa (human, UniProt Q96B86 46-425, limits assumed); assay: Octet (BLI), antibody on AHC biosensor, his-tagged hRGMa in solution (concentrations from paragraph 460)
T4 construct: also called RGMa-his; not shown: histidine tag
T4 sequence: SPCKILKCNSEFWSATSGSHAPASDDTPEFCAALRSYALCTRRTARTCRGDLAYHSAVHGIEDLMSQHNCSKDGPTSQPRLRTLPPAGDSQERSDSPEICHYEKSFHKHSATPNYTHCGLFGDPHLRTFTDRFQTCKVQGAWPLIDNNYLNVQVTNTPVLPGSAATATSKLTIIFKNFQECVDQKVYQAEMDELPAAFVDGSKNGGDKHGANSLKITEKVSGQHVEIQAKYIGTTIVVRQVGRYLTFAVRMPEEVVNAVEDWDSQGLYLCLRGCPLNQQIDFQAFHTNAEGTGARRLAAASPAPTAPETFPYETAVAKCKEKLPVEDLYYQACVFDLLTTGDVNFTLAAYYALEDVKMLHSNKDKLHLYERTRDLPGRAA
Protocol: as §1

B1: SR-RC-AB9 (antibody, V domains shown)
VH: QVQLVQSGAEVKKPGSSVKVSCKASGGTFSSYSIQWVRQAPGQGLEWMGGIIPIFGVASYAQKFQGRVTITADESTSTAYMELSSLRSEDTAVYYCARGAIAATYGLGMDVWGQGTTVTVSS
VL: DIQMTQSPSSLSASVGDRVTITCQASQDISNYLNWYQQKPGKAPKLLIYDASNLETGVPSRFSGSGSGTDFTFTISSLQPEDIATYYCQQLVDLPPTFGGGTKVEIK
notes: Tested as a full-length antibody
- Kd (histidine tagged hRGMc): 0.024 nM
- EC50 (ug/mL), BMP activity assay [1]: 3.45 µg/mL

B2: SR-RC-AB3 (antibody, V domains shown)
VH: B1 VH with S33A, Q35S, V57T, S59N
VL: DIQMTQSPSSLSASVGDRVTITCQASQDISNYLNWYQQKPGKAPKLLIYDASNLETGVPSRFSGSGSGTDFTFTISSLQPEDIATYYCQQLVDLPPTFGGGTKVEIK
notes: Tested as a full-length antibody, captured by anti-human IgG Fc sensors; also called parental antibody
- Kd (histidine tagged hRGMc): 4.3 nM
- EC50 in the BRE reporter assay (BMP6 reporter activity, luciferase RLU) [2]: 6.83 nM
- binding result (histidine tagged hRGMb): no binding (tested: 900 nM)
- EC50 (ug/mL), BMP activity assay [1]: 4.83 µg/mL
- binding result (histidine tagged hRGMa): no binding (tested: 900 nM)

Results, then the binder that gave them:

- Kd (histidine tagged hRGMc): 0.021 nM
- EC50 (ug/mL), BMP activity assay [1]: 3.87 µg/mL
B3: SR-RC-AB7 (antibody, V domains shown)
VH: B1 VH with K19R, S33A, A102V
VL: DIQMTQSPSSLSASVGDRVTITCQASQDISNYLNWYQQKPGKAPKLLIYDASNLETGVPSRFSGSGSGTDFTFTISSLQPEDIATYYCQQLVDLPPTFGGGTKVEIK
notes: as for B1

- Kd (histidine tagged hRGMc): 0.039 nM
- EC50 (ug/mL), BMP activity assay [1]: 3.63 µg/mL
B4: SR-RC-AB8 (antibody, human IgG4, V domains shown)
VH: B1 VH with S30R, Q35S, S59N, I101Y, A102E
VL: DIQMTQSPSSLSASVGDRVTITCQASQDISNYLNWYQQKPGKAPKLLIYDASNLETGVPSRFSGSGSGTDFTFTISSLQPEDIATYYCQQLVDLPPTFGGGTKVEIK
